Results reported in patent US20170342349A1, “STABILIZED ENZYME COMPOSITIONS” (NOVOZYMES A/S, priority 2014, published 2017).
Where “and” joins values, the source holds several entries; their conditions need not be identical. Identical values can stand only once.

Experiment: Inhibitor binding assay of SEQ ID NO 3 variants, Inhibitor 1, in Model B detergent
Type: biochemical
Details: in Model B relative to SEQ ID NO 3 comprising S173P + S175P + F180Y; relative Ki, IF>1.0 = lower Ki
From the text: Where E is the protease, I is the inhibitor and EI is the protease-inhibitor complex. […] The concentration of enzyme-inhibitor in the detergent solution is then given by:
where Etot is the total protease concentration ([Etot]=[E]+[EI]), Itot is the total inhibitor concentration ([Itot]=[I]+[EI]), and Ki is the equilibrium binding constant for the reaction. The measured slopes V are given by:
where V0 is the slope without inhibitor added. To calculate apparent binding constant Ki least square fitting of measured slopes at various inhibitor concentrations to this equation is performed with Ki and V0 as variables.
Purified protease variants are pre-diluted to approximately 0.2 mg/ml in dilution buffer. The experimental conditions are described in Table 5. 40 μl diluted protease is then mixed with 40 μl inhibitor solution Inhibitor 1: (Cbz-Gly-Ala-NHCH(CH2C6H4pOH)C(OH)(SO3Na)—H, wherein Cbz is benzyloxycarbonyl) or 40 μl Inhibitor 2: (4-FPBA) solution in the well of a 96 well microtiter plate (Nunc F 96-MTP). […] After 10 min mixing of protease and inhibitor at room temperature, 30 μl of the mixture is transferred to a microtiter plate (Nunc U96 PP 0.5 ml) with 270 μl Model B detergent (described in Table 1) in the wells resulting in inhibitor 1 concentrations of 0-30 μM and inhibitor 2 concentrations of 0-6000 μM. Protease, inhibitor and detergent is mixed for 1 hour using magnetic bars for 1 hour at room temperature to reach equilibrium. Then 20 μl is transferred to a microtiter plate (Nunc F 96-MTP). 100 μl substrate solution is added and after 5 sec mixing absorbance at 405 nm is measured every 20 sec for 5 min on a SpectraMax Plus reader. Slope from linear regression of initial increase in absorbance at 405 nm is used for calculation of apparent binding constants. Ki values were calculated according to the “Calculation of Ki” method described in “Materials and Methods”
Having the Ki for each variant, it is possible to calculate the effect of a single mutation, if data are available for at least two variants that differ only by that mutation. In this case, the relative Ki for the mutation (Improvement Factor, or IF) is calculated:
A lower Ki is desirable, as a satisfactory inhibition can be obtained at a lower inhibitor concentration, so beneficial mutations have an IF>1.0

Molecule	inhibitor 1 binding constant improvement factors (IF)
S173P + S175P + I178F + F180Y: protease variant of SEQ ID NO 3 (protein, listed as Bacillus sp.) AVPSTQTPWGIKSIYNDQSITKTTGGSGIKVAVLDTGVYTSHLDLAGSAEQCKDFTQSNPLVDGSCTDRQGHGTHVAGTVLAHGGSNGQGVYGVAPQAKLWAYKVLGDNGSGYSDDIAAAIRHVADEASRTGSKVVINMSLGSSAKDSLIASAVDYAYGKGVLIVAAAGNSGPGPNTFGYPGGLVNAVAVAALENVQQNGTYRVADFSSRGNPATAGDYIIQERDIEVSAPGASVESTWYTGGYNTISGTSMATPHVAGLAAKIWSANTSLSHSQLRTELQNRAKVYDIKGGIGAGTGDDYASGFGYPRVK	2.34 and 1.83
K146R + S173P + S175P + F180Y: protease variant of SEQ ID NO 3 (protein, listed as Bacillus sp.) AVPSTQTPWGIKSIYNDQSITKTTGGSGIKVAVLDTGVYTSHLDLAGSAEQCKDFTQSNPLVDGSCTDRQGHGTHVAGTVLAHGGSNGQGVYGVAPQAKLWAYKVLGDNGSGYSDDIAAAIRHVADEASRTGSKVVINMSLGSSARDSLIASAVDYAYGKGVLIVAAAGNSGPGPNTIGYPGGLVNAVAVAALENVQQNGTYRVADFSSRGNPATAGDYIIQERDIEVSAPGASVESTWYTGGYNTISGTSMATPHVAGLAAKIWSANTSLSHSQLRTELQNRAKVYDIKGGIGAGTGDDYASGFGYPRVK	1.31
S173P + S175P + I178Y + F180Y: protease variant of SEQ ID NO 3 (protein, listed as Bacillus sp.) AVPSTQTPWGIKSIYNDQSITKTTGGSGIKVAVLDTGVYTSHLDLAGSAEQCKDFTQSNPLVDGSCTDRQGHGTHVAGTVLAHGGSNGQGVYGVAPQAKLWAYKVLGDNGSGYSDDIAAAIRHVADEASRTGSKVVINMSLGSSAKDSLIASAVDYAYGKGVLIVAAAGNSGPGPNTYGYPGGLVNAVAVAALENVQQNGTYRVADFSSRGNPATAGDYIIQERDIEVSAPGASVESTWYTGGYNTISGTSMATPHVAGLAAKIWSANTSLSHSQLRTELQNRAKVYDIKGGIGAGTGDDYASGFGYPRVK	2.15
S173P + S175P + F180Y + G182S: protease variant of SEQ ID NO 3 (protein, listed as Bacillus sp.) AVPSTQTPWGIKSIYNDQSITKTTGGSGIKVAVLDTGVYTSHLDLAGSAEQCKDFTQSNPLVDGSCTDRQGHGTHVAGTVLAHGGSNGQGVYGVAPQAKLWAYKVLGDNGSGYSDDIAAAIRHVADEASRTGSKVVINMSLGSSAKDSLIASAVDYAYGKGVLIVAAAGNSGPGPNTIGYPSGLVNAVAVAALENVQQNGTYRVADFSSRGNPATAGDYIIQERDIEVSAPGASVESTWYTGGYNTISGTSMATPHVAGLAAKIWSANTSLSHSQLRTELQNRAKVYDIKGGIGAGTGDDYASGFGYPRVK	1.69
S173P + S175P + F180Y + L184Y: protease variant of SEQ ID NO 3 (protein, listed as Bacillus sp.) AVPSTQTPWGIKSIYNDQSITKTTGGSGIKVAVLDTGVYTSHLDLAGSAEQCKDFTQSNPLVDGSCTDRQGHGTHVAGTVLAHGGSNGQGVYGVAPQAKLWAYKVLGDNGSGYSDDIAAAIRHVADEASRTGSKVVINMSLGSSAKDSLIASAVDYAYGKGVLIVAAAGNSGPGPNTIGYPGGYVNAVAVAALENVQQNGTYRVADFSSRGNPATAGDYIIQERDIEVSAPGASVESTWYTGGYNTISGTSMATPHVAGLAAKIWSANTSLSHSQLRTELQNRAKVYDIKGGIGAGTGDDYASGFGYPRVK	3.91
S173P + S175P + F180Y + L184W: protease variant of SEQ ID NO 3 (protein, listed as Bacillus sp.) AVPSTQTPWGIKSIYNDQSITKTTGGSGIKVAVLDTGVYTSHLDLAGSAEQCKDFTQSNPLVDGSCTDRQGHGTHVAGTVLAHGGSNGQGVYGVAPQAKLWAYKVLGDNGSGYSDDIAAAIRHVADEASRTGSKVVINMSLGSSAKDSLIASAVDYAYGKGVLIVAAAGNSGPGPNTIGYPGGWVNAVAVAALENVQQNGTYRVADFSSRGNPATAGDYIIQERDIEVSAPGASVESTWYTGGYNTISGTSMATPHVAGLAAKIWSANTSLSHSQLRTELQNRAKVYDIKGGIGAGTGDDYASGFGYPRVK	2.23

Other lines, results leading:

inhibitor 1 binding constant improvement factors (IF)	Molecule
4.28 and 3.02	S173P + S175P + F180Y + L184F: protease variant of SEQ ID NO 3 (protein, listed as Bacillus sp.) AVPSTQTPWGIKSIYNDQSITKTTGGSGIKVAVLDTGVYTSHLDLAGSAEQCKDFTQSNPLVDGSCTDRQGHGTHVAGTVLAHGGSNGQGVYGVAPQAKLWAYKVLGDNGSGYSDDIAAAIRHVADEASRTGSKVVINMSLGSSAKDSLIASAVDYAYGKGVLIVAAAGNSGPGPNTIGYPGGFVNAVAVAALENVQQNGTYRVADFSSRGNPATAGDYIIQERDIEVSAPGASVESTWYTGGYNTISGTSMATPHVAGLAAKIWSANTSLSHSQLRTELQNRAKVYDIKGGIGAGTGDDYASGFGYPRVK
2.22	S173P + S175P + I178P + F180Y: protease variant of SEQ ID NO 3 (protein, listed as Bacillus sp.) AVPSTQTPWGIKSIYNDQSITKTTGGSGIKVAVLDTGVYTSHLDLAGSAEQCKDFTQSNPLVDGSCTDRQGHGTHVAGTVLAHGGSNGQGVYGVAPQAKLWAYKVLGDNGSGYSDDIAAAIRHVADEASRTGSKVVINMSLGSSAKDSLIASAVDYAYGKGVLIVAAAGNSGPGPNTPGYPGGLVNAVAVAALENVQQNGTYRVADFSSRGNPATAGDYIIQERDIEVSAPGASVESTWYTGGYNTISGTSMATPHVAGLAAKIWSANTSLSHSQLRTELQNRAKVYDIKGGIGAGTGDDYASGFGYPRVK
1.12	S111I + S173P + S175P + F180Y: protease variant of SEQ ID NO 3 (protein, listed as Bacillus sp.) AVPSTQTPWGIKSIYNDQSITKTTGGSGIKVAVLDTGVYTSHLDLAGSAEQCKDFTQSNPLVDGSCTDRQGHGTHVAGTVLAHGGSNGQGVYGVAPQAKLWAYKVLGDNGIGYSDDIAAAIRHVADEASRTGSKVVINMSLGSSAKDSLIASAVDYAYGKGVLIVAAAGNSGPGPNTIGYPGGLVNAVAVAALENVQQNGTYRVADFSSRGNPATAGDYIIQERDIEVSAPGASVESTWYTGGYNTISGTSMATPHVAGLAAKIWSANTSLSHSQLRTELQNRAKVYDIKGGIGAGTGDDYASGFGYPRVK
2.49 and 2.01	S173P + S175P + F180Y + G182A: protease variant of SEQ ID NO 3 (protein, listed as Bacillus sp.) AVPSTQTPWGIKSIYNDQSITKTTGGSGIKVAVLDTGVYTSHLDLAGSAEQCKDFTQSNPLVDGSCTDRQGHGTHVAGTVLAHGGSNGQGVYGVAPQAKLWAYKVLGDNGSGYSDDIAAAIRHVADEASRTGSKVVINMSLGSSAKDSLIASAVDYAYGKGVLIVAAAGNSGPGPNTIGYPAGLVNAVAVAALENVQQNGTYRVADFSSRGNPATAGDYIIQERDIEVSAPGASVESTWYTGGYNTISGTSMATPHVAGLAAKIWSANTSLSHSQLRTELQNRAKVYDIKGGIGAGTGDDYASGFGYPRVK
